Measurements as given in patent US20050112555A1, “Cytidine deaminase activators, deoxycytidine deaminase activators, Vif antagonists, and methods of screening for molecules thereof” (priority 2003, published 2005).
Like-named read-outs stand apart in the source and are kept apart here.

What was measured:
[1] = system: reporter apoB mRNA site C6666; assay: Poisoned primer extension editing assay of reporter apoB mRNA in yeast
[2] = system: pseudotyped HIV-1 viral particles; assay type: cell-based; conditions: vs control 293T cells with pIRES-P vector
[3] = system: vif− HIV-1 particles; assay type: cell-based
[4] = system: HIV-1 GP-RNA; assay: UV crosslinking RNA binding assay, HIV-1 GP-RNA; conditions: recombinant CEM15 1, 2 and 4 μg; 20 fmol radiolabeled GP-RNA
[5] = system: HIV-1 p24 and RT protein; assay: Western blot of HIV-1 proteins in proviral-transfected 293T cell lysates; assay type: cell-based; conditions: ΔVif proviral DNA, 72 h, vs control pIRES-P cells
[6] = system: apoB RNA; assay: UV crosslinking RNA binding assay, apoB RNA; conditions: recombinant CEM15; 20 fmol radiolabeled apoB RNA
[7] = system: HIV-1 Gag-Pol mRNA (GP-RNA region); assay: Northern blot of viral Gag-Pol poly A+ RNA abundance in 293T cells; assay type: cell-based; conditions: ΔVif vs Vif+ provirus, 293T-CEM15
[8] = overexpressed in yeast, late log phase growth with galactose feeding

B1: Cdd1: tetrameric cytidine deaminase from S. cerevisiae with RNA editing activity (protein, UniProt Q06549 1-142, looked up)
Cytidine deaminase: MKVGGIEDRQLEALKRAALKACELSYSPYSHFRVGCSILTNNDVIFTGANVENASYSNCICAERSAMIQVLMAGHRSGWKCMVICGDSEDQCVSPCGVCRQFINEFVVKDFPIVMLNSTGSRSKVMTMGELLPMAFGPSHLN
In the case of B1, the “C to U editing of reporter apoB mRNA at site C6666” value [1, 8] is reported as 6.7% and the “editing level relative to negative control (empty vector)” value [1, 8] is reported as roughly 10 ×.

B2: CDA from E. coli: dimeric cytidine deaminase from E. coli, equivalent to PDB entry 1AF2 (protein, UniProt P0ABF6 1-294, looked up)
Cytidine deaminase: MHPRFQTAFAQLADNLQSALEPILADKYFPALLTGEQVSSLKSATGLDEDALAFALLPLAAACARTPLSNFNVGAIARGVSGTWYFGANMEFIGATMQQTVHAEQSAISHAWLSGEKALAAITVNYTPCGHCRQFMNELNSGLDLRIHLPGREAHALRDYLPDAFGPKDLEIKTLLMDEQDHGYALTGDALSQAAIAAANRSHMPYSKSPSGVALECKDGRIFSGSYAENAAFNPTLPPLQGALILLNLKGYDYPDIQRAVLAEKADAPLIQWDATSATLKALGCHSIDRVLLA
B2 was tested, and the “editing activity on reporter apoB mRNA (in words)” value ([1]; expressed in yeast) was “incapable of editing on the reporter substrate”.

B3: CEM15: human cytidine deaminase (APOBEC-3G) that reduces retroviral infectivity; HA-tagged, stably expressed in 293T cells or recombinant (protein)
chain: MKPHFRNTVERMYRDTFSYNFYNRPILSRRNTVWLCYEVKTKGPSRPPLDAKIFRGQVYSELKYHPEMRFFHWFSKWRKLHRDQEYEVTWYISWSPCTKCTRDMATFLAEDPKVTLTIFVARLYYFWDPDYQEALRSLCQKRDGPRATMKIMNYDEFQHCWSKFVYSQRELFEPWNNLPKYYILLHIMLGEILRHSMDPPTFTFNFNNEPWVRGRHETYLCYEVERMHNDTWVLLNQRRGFLCNQAPHKHGFLEGRHAELCFLDVIPFWKLDLDQDYRVTCFTSWSPCFSCAQEMAKFISKNKHVSLCIFTARIYDDQGRCQEGLRTLAEAGAKISIMTYSEFKHCWDTFVDHQGCPFQPWDGLDEHSQDLSGRLRAILQNQEN
modifications: left off: small tags and cut ends
notes: human cytidine deaminase (APOBEC-3G) that reduces retroviral infectivity; HA-tagged, stably expressed in 293T cells or recombinant
With B3 the “reduction of viral particle production” value ([2]; Vif+ provirus) was 5 fold, the “reduction of viral particle production” value ([2]; ΔVif provirus (absence of Vif)) was 100 fold and the “GFP expression from vif−, CEM15+ particles” value [3] was “indistinguishable from background fluorescence in control cells”. The “decrease in Vif− viral infectivity” value [3] was no less than 100 fold, the “RNA binding (UV crosslinking)” value [4] was “bound to radiolabeled HIV-1 GP-RNA in concentration dependent manner” and the “HIV-1 p24 and RT protein abundance” value [5] was “marked reduction”. The “RNA binding (UV crosslinking), yield of complexes compared with GP-RNA” value [6] was “the yield of complexes was similar”, the “depletion of viral RNA levels” value ([7]; 24 h post-transfection) was 2 fold and the “depletion of viral RNA levels” value ([7]; 48 h post-transfection) was 9 fold. The “depletion of viral RNA levels” value ([7]; 72 h post-transfection) was 56 fold.
